# Starred links: 1 amine or outer side, 2 acyl side, 3 side chain; linkers in the order of their positions; H or OH if unused. Positions of bridges follow the written chain, without caps; N, C: chain ends. Non-standard residues stand in square brackets, D forms with d. No end group written: not given here. mClBz = N-terminal chlorobenzyl thioether anchor (M*) that cyclises onto the Cys, the meta form of the mClBz/pClBz pair, O=C(c1cccc(C[*:3])c1)[*:2]; code ∗ = not defined here
# Columns and labels:
# [1] = target: T1, biotin-^K48Ub2 (chemically synthesized K48-linked di-ubiquitin, biotin on the distal Ub) (UniProt P0CG48 1-76, isopeptide bond from the C-terminus of the distal Ub to Lys48 of the proximal Ub; biotin at the N-terminus of the distal Ub); experiment: SPR, K48-Ub2
# T1 construct: mature; also called Lys48-linked ubiquitin dimer
# [2] = target: T1, biotin-^K48Ub2 (chemically synthesized …); experiment: SPR, K48-Ub2; mClBz anchor; wildtype J08, no mutations
# [3] = target: T1, biotin-^K48Ub2 (chemically synthesized …); experiment: SPR, K48-Ub2; remark: listed apart in the source
# [4] = target: T1, biotin-^K48Ub2 (chemically synthesized …); experiment: SPR (Biacore T100), biotin-Ub chain on the chip, peptide in flow; error 8
# [5] = target: T2, biotin-^K48Ub4 (chemically synthesized K48-linked tetra-ubiquitin, biotin on the distal Ub) (UniProt P0CG48 1-76, isopeptide bonds from the C-terminus of each Ub to Lys48 of the next Ub; biotin at the N-terminus of the distal Ub); experiment: SPR (Biacore T100), biotin-Ub chain on the chip, peptide in flow; error 4
# T2 construct: mature; also called Ub tetramer
# [6] = target: T1, biotin-^K48Ub2 (chemically synthesized …); experiment: SPR (Biacore T100), biotin-Ub chain on the chip, peptide in flow; error 28
# [7] = target: T2, biotin-^K48Ub4 (chemically synthesized …); experiment: SPR (Biacore T100), biotin-Ub chain on the chip, peptide in flow; error 7
# [8] = target: T2, biotin-^K48Ub4 (chemically synthesized …); experiment: SPR (Biacore T100), biotin-Ub chain on the chip, peptide in flow; error 7.30E+05
# [9] = target: T2, biotin-^K48Ub4 (chemically synthesized …); experiment: SPR (Biacore T100), biotin-Ub chain on the chip, peptide in flow; error 0.002
Kd [1] [nM],Kd [3] [nM],Kd [5] [nM],Binder,further results
10,–,–,"mClBz-GWFDDLYLFVAYCG (bridge N-13; not fully specified (bridges), also called J08 (M* = mClBz)) [J08_mClBz]",Kd [2]: 10 nM
5,5,–,mClBz-GWFDDEYLFVAYCG (bridge N-13; not fully specified (bridges)) [J08_mClBz_L6E],–
33,–,14,"WWYDREYYYLGYGCG (position 1 is ClAc-D-Trp (M* of Table 2); macrocycle closed between the N-terminal chloroacetyl group and the Cys, also called U2ii) [Ub2ii cyclic peptide]",Kd [4]: 33 nM
90,90,–,"WGWFDDLYLFVAYCG (position 1 is ClAc-D-Trp (M* of Table 2); macrocycle closed between the N-terminal chloroacetyl group and the Cys, also called U4i) [Ub4i cyclic peptide]",Kd [6]: 91 nM; Kd [7]: 26 nM
–,–,14,"{CH2CO}-[dW]GWFDNLYWYVTHCG (thioether N-14, also called U2i) [Ub2i cyclic peptide]",–
–,–,–,"{code ∗}-[dW]LYLDDSGDWWICG (thioether N-13 (inferred); reading uncertain; also: printed as *WLYLDDSGDWWICG, also called U4ix; Ub4xi) [Ub4ix cyclic peptide]",kon [8]: 3.52e+06 M⁻¹ s⁻¹; koff [9]: 0.021 s⁻¹

# Reference: patent publication US12084523 (TECHNION RESEARCH AND DEVELOPMENT FOUNDATION, dated 2024)
